Changes are numbered by the printed parent chain. Numbers in names are those of the source.
B1: variant CD80 E35D/L85Q/K93T/E95V/L97Q (Fc fusion)
chain: VIHVTKEVKEVATLSCGHNVSVEELAQTRIYWQKDKKMVLTMMSGDMNIWPEYKNRTIFDITNNLSIVILALRPSDEGTYECVVQKYEKDAFTRVHQAEVT
B2: variant CD80 E35D/M47V/N48K/V68M/K89N (Fc fusion)
chain: B1 chain with M47V, N48K, V68M, Q85L, K89N, T93K, V95E, Q97L
B3: variant CD80 E35D/M47I/L85Q/D90G (Fc fusion)
chain: B1 chain with M47I, D90G, T93K, V95E, Q97L
B4: variant CD80 R29H/E35D/M43V/M47I/I49V (Fc fusion)
chain: B1 chain with R29H, M43V, M47I, I49V, Q85L, T93K, V95E, Q97L
B5: variant CD80 E35D/T41S/M43V/M47I/L70M/A71G (Fc fusion)
chain: B1 chain with T41S, M43V, M47I, L70M, A71G, Q85L, T93K, V95E, Q97L
B6: variant CD80 E35D/M47I/T62S/L85Q (Fc fusion)
chain: B1 chain with M47I, T62S, T93K, V95E, Q97L
B7: variant CD80 V22A/E35D/M47I/Y87N (Fc fusion)
chain: B1 chain with V22A, M47I, Q85L, Y87N, T93K, V95E, Q97L
B8: variant CD80 Q33L/E35D/M47I/N48D/A71G (Fc fusion)
chain: B1 chain with Q33L, M47I, N48D, A71G, Q85L, T93K, V95E, Q97L
B9: variant CD80 Q27H/E35D/M47I/L85Q/D90G (Fc fusion)
chain: B1 chain with Q27H, M47I, D90G, T93K, V95E, Q97L
B10: variant CD80 E35D/D46E/M47V/N63D/L85Q (Fc fusion)
chain: B1 chain with D46E, M47V, N63D, T93K, V95E, Q97L
B11: variant CD80 E35D/D46E/M47V/V68M/D90G/K93E (Fc fusion)
chain: B1 chain with D46E, M47V, V68M, Q85L, D90G, T93E, V95E, Q97L
B12: variant CD80 E35D/M47L/A71G/L85M/F92Y (Fc fusion)
chain: B1 chain with M47L, A71G, Q85M, F92Y, T93K, V95E, Q97L
B13: variant PD-L2 IgV H15Q Fc fusion (Fc fusion)
chain: LFTVTVPKELYIIEQGSNVTLECNFDTGSHVNLGAITASLQKVENDTSPHRERATLLEEQLPLGKASFHIPQVQVRDEGQYQCIIIYGVAWDYKYLTLKVKA
B14: variant PD-L2 IgV I13V/E44D/Q82R/V89D Fc fusion (Fc fusion)
chain: B13 chain with I13V, Q15H, E44D, Q82R, V89D
B15: variant PD-L2 IgV N24D Fc fusion (Fc fusion)
chain: B13 chain with Q15H, N24D
B16: variant PD-L2 IgV H15Q/T47A Fc fusion (Fc fusion)
chain: B13 chain with T47A
B17: variant PD-L2 IgV I13V/H15Q/T37A/E44D/S48C/S67L/Q82R/V89D Fc fusion (Fc fusion)
chain: B13 chain with I13V, T37A, E44D, S48C, S67L, Q82R, V89D
B18: variant PD-L2 IgV G28V/Q72H/R76G/I86T Fc fusion (Fc fusion)
chain: B13 chain with Q15H, G28V, Q72H, R76G, I86T
B19: variant PD-L2 IgV H15Q/N24S/T47A/Q72H/R76G/V89D Fc fusion (Fc fusion)
chain: B13 chain with N24S, T47A, Q72H, R76G, V89D
B20: variant PD-L2 IgV S67L/I85F Fc fusion (Fc fusion)
chain: B13 chain with Q15H, S67L, I85F
B21: variant PD-L2 IgV H15Q/Q82R/V89D Fc fusion (Fc fusion)
chain: B13 chain with Q82R, V89D
B22: variant PD-L2 IgV H15Q/T47A/Q72H/R76G/I86T Fc fusion (Fc fusion)
chain: B13 chain with T47A, Q72H, R76G, I86T
B23: variant PD-L2 IgV I13V/H15Q/T47A/R76G/V89D Fc fusion (Fc fusion)
chain: B13 chain with I13V, T47A, R76G, V89D
B24: variant PD-L2 IgV V89D Fc fusion (Fc fusion)
chain: B13 chain with Q15H, V89D
B25: variant PD-L2 IgV E44D Fc fusion (Fc fusion)
chain: B13 chain with Q15H, E44D
B26: variant PD-L2 IgV H15Q/K65R Fc fusion (Fc fusion)
chain: B13 chain with K65R
B27: variant PD-L2 IgV H15Q/V89D Fc fusion (Fc fusion)
chain: B13 chain with V89D
B28: variant PD-L2 IgV H15Q/S67L/R76G/I85F Fc fusion (Fc fusion)
chain: B13 chain with S67L, R76G, I85F
B29: variant CD80 K36G/K37Q/M38I/L40M (Fc fusion)
chain: VIHVTKEVKEVATLSCGHNVSVEELAQTRIYWQKEGQIVMTMMSGDMNIWPEYKNRTIFDITNNLSIVILALRPSDEGTYECVVLKYEKDAFKREHLAEVTLSVKADFPTPSISDFEIPTSNIRRIICSTSGGFPEPHLSWLENGEELNAINTTVSQDPETELYAVSSKLDFNMTTNHSFMCLIKYGHLRVNQTFNWNTTKQEHFPDN

Key:
CD28 (human) [1] = molecular target: CD28 (human) (UniProt P10747); test: flow cytometry, Jurkat cells (CD28)
CTLA-4 (human) [2] = test: flow cytometry, CHO cells expressing CTLA4
Chain of CTLA-4 (human) (chain, as listed by the source): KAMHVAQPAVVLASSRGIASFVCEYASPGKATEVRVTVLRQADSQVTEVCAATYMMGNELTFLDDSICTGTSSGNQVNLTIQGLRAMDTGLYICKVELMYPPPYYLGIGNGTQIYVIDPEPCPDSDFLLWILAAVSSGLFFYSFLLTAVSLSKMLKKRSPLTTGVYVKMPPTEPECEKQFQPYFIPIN

PD-L1 (human) [3] = test: flow cytometry, CHO cells expressing PD-L1
Chain of PD-L1 (human) (chain, as listed by the source): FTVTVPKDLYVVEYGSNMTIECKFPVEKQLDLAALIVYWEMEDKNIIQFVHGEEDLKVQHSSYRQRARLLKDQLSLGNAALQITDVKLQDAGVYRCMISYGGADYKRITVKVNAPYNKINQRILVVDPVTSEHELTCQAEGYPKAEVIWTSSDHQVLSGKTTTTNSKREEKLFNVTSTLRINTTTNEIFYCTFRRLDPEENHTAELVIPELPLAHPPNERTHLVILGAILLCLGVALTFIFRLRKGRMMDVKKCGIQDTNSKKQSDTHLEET

PD-1-Fc (human) = PD-1-Fc (human) (UniProt Q15116); test: ForteBio Octet, PD-1 on anti-human capture sensor, 100 nM
Chain of PD-1-Fc (human) (Q15116 25-167 limits assumed): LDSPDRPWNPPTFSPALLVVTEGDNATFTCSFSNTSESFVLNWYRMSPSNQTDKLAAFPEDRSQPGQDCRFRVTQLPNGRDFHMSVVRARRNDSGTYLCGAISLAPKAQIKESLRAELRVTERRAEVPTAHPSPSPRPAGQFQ

human PD-1 (human) = human PD-1 (human) (UniProt Q15116)
Chain of human PD-1 (human) (Q15116 25-288): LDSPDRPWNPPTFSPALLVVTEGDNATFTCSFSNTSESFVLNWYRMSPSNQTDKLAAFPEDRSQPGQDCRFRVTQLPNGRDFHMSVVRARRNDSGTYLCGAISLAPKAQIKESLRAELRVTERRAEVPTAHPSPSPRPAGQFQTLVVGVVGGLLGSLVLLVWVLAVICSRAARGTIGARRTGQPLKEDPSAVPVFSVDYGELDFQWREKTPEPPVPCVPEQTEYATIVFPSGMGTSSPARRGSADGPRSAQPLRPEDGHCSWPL

PD-L1 (human) [4] = test: flow cytometry, cells expressing PD-L1
CD28 (human) [5] = molecular target: CD28 (human) (UniProt P10747); test: flow cytometry, cells expressing CD28
CTLA-4 (human) [6] = test: flow cytometry, cells expressing CTLA-4

Row | Binder | Fold change to WT CD80 (CD28 (human) [1]) [fold] | MFI at 33.3 nM (CD28 (human) [1]) [MFI] | Fold change to WT CD80 (CTLA-4 (human) [2]) [fold] | MFI at 33.3 nM (CTLA-4 (human) [2]) [MFI] | Fold change to WT CD80 (PD-L1 (human) [3]) [fold] | MFI at 33.3 nM (PD-L1 (human) [3]) [MFI] | Fortebio Response Units (Response Units) (PD-1-Fc (human)) | IFN gamma levels pg/mL (MLR) (human PD-1 (human)) [pg/mL] | also measured
1 | B1 | 0.02 | 400 | 1.57 | 246000 | 1.67 | 19900 | – | – | –
2 | B2 | 0.65 | 11700 | 0.01 | 807 | 7.56 | 89800 | – | – | –
3 | B3 | 0.23 | 4100 | 1.57 | 248000 | 3.01 | 35700 | – | – | –
4 | B4 | 0.02 | 336 | 0.03 | 4690 | 0.13 | 1590 | – | – | –
5 | B5 | 0.15 | 2700 | 1.59 | 249000 | 1.09 | 13000 | – | – | –
6 | B6 | 0.1 | 1760 | 1.91 | 301000 | 3.79 | 45000 | – | – | –
7 | B7 | – | 15300 | – | 246000 | – | – | – | – | –
8 | B8 | 0.04 | 644 | 0.74 | 117000 | 2.62 | 31200 | – | – | –
9 | B9 | 0.19 | 3510 | 1.64 | 258000 | 2.58 | 30700 | – | – | –
10 | B10 | 0.07 | 1330 | 1.74 | 274000 | 5.88 | 69800 | – | – | –
11 | B11 | 1.5 | 27100 | 1.74 | 273000 | 6.06 | 71900 | – | – | –
12 | B12 | 0.14 | 2460 | 1.37 | 216000 | 3.93 | 46700 | – | – | –
13 | B13 | – | – | – | – | – | – | 0.007 | 1820 | –
14 | B14 | – | – | – | – | – | – | 1.28 | – | –
15 | B15 | – | – | – | – | – | – | -0.039 | 1980 | –
16 | B16 | – | – | – | – | – | – | 0.016 | 1640 | –
17 | B17 | – | – | – | – | – | – | 1.25 | 1750 | –
18 | B18 | – | – | – | – | – | – | 0.003 | 1780 | –
19 | B19 | – | – | – | – | – | – | 0.4 | 1090 | –
20 | B20 | – | – | – | – | – | – | -0.005 | 1280 | –
21 | B21 | – | – | – | – | – | – | 1.2 | 1080 | –
22 | B22 | – | – | – | – | – | – | 0.512 | 1600 | –
23 | B23 | – | – | – | – | – | – | 1.6 | 1250 | –
24 | B24 | – | – | – | – | – | – | 0.005 | 1170 | –
25 | B25 | – | – | – | – | – | – | -0.006 | 1500 | –
26 | B26 | – | – | – | – | – | – | -0.001 | 1510 | –
27 | B27 | – | – | – | – | – | – | 0.31 | 1500 | –
28 | B28 | – | – | – | – | – | – | 0.025 | 1320 | –
29 | B29 | – | – | – | – | – | – | – | – | MFI (PD-L1 (human) [4]): 959 MFI; parental ratio (PD-L1 (human) [4]): 0.05; MFI (CD28 (human) [5]): 1170 MFI; parental ratio (CD28 (human) [5]): 0.09; MFI (CTLA-4 (human) [6]): 1400 MFI; parental ratio (CTLA-4 (human) [6]): 0.03

Reference: patent US20250163127A1
